# According to patent US20230406902A1 (BIONTECH, published 2023):
# Bridges are numbered along the chain shown (N, C = ends). Where no end group is shown, it is not given here.
# B1: Cyclopeptide-GGS-K(X) of ACHLGYPGRCG (Seq. 3) (peptide)
# peptide: ACHLGYPGRCGGGSK
# modifications: disulfide 2-10 (inferred); also: C-terminal Lys carries an unspecified functional group X for microarray attachment
# notes: Microarray construct; also called parental peptide (cyclic, immobilized through C-terminus)
# B2: Cyclopeptide-GGS-K(X) of ACHYSYPGVCG (Seq. 2) (peptide)
# peptide: ACHYSYPGVCGGGSK
# modifications: disulfide 2-10 (inferred); also: C-terminal Lys carries an unspecified functional group X for microarray attachment
# notes: as for B1
# B3: Cyclopeptide-GGS-K(X) of ACHLNYPGYCG (Seq. 1) (peptide)
# peptide: ACHLNYPGYCGGGSK
# modifications: disulfide 2-10 (inferred); also: C-terminal Lys carries an unspecified functional group X for microarray attachment
# notes: as for B1
# Biological target: T1, IMAB362
# T1 construct: It is the target of the phage display selection; also called IMAB362 antibody
# Assay: peptide microarray, 1 µg/ml IMAB362, fluorescence signal; this construct is the reference
# T1 sequence (VH, as listed by the source limits assumed, chain 1 of 2): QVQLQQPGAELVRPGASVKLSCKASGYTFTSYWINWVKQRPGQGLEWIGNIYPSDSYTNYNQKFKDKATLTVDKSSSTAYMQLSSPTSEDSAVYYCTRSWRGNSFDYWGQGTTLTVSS
# T1 sequence (VL, as listed by the source limits assumed, chain 2 of 2): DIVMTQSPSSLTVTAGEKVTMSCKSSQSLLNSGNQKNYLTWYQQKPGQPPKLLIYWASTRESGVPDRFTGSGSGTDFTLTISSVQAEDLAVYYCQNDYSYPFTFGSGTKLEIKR
row,Binder,% Affinity compared to hit peptide [%]
1,B1,100
2,B2,100
3,B3,100
